Source: patent US20150037328A1 (Pfizer, published 2015)
Substitutions are numbered along the chain they refer to. Names may count otherwise.

Assays:
[1] = biological target: T1, human CXCR4 (chemokine (C-X-C motif) receptor 4) (human, UniProt P61073 1-352); assay: flow cytometry on HPB-ALL cells, dilution series 0.007-267 nM
T1 construct: Endogenous on human tumour cell lines (Ramos, HPB-ALL, Raji, Jurkat, MM1.S, RPMI-8226, MOLP-8, MOLT-4) or transfected into CHO-K1 cells (DiscoveRx); also called CXCR4 receptor
T1 sequence (P61073 whole entry): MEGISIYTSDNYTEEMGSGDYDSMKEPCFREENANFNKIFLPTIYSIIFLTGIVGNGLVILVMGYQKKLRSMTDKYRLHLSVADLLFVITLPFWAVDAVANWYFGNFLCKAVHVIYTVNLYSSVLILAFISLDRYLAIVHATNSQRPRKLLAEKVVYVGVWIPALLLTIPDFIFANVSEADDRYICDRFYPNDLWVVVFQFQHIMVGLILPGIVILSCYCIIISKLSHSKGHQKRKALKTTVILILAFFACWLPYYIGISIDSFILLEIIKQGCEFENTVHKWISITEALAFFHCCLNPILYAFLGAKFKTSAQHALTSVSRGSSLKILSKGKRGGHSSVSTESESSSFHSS
Procedure: (§1) Binding was detected by 2nd Ab (Alexa Fluor 647-conjugated goat anti-human IgG, Fcgamma specific, Jackson ImmunoResearch Laboratories, West Grove Pa.) and acquired with LSRFortessa cell analyzer (BD Biosciences, San Jose Calif.). Curve fit and EC50 calculation was performed with Prism software (GraphPad Software, La Jolla Calif.). Tables 9A and 9B and FIGS. 3A and 3B.

cynomolgus CXCR4 [2] = biological target: T2, cynomolgus CXCR4 (cynomolgus, UniProt Q28474 1-352); assay: flow cytometry on Cyno-CXCR4 transfected CHO cells, dilution series 0.007-267 nM
T2 construct: whole, on cells; On Cyno-CXCR4 transfected CHO cells and on HSC-F (cynomolgus T cell line); also called Cyno-CXCR4; CynoCXCR4
T2 sequence (Q28474 whole entry): as the sequence (P61073 whole entry) above, with M24I, N35H, K38R, R146K, N176S counted along it
Procedure: as §1

[3] = biological target: T1, human CXCR4 (chemokine (C-X-C motif) …); assay: cell-based or functional assay
cynomolgus CXCR4 [4] = biological target: T2, cynomolgus CXCR4; assay: flow cytometry on HSC-F (cynomolgus T cell line) cells, dilution series 0.007-267 nM
Procedure: as §1

[5] = biological target: T1, human CXCR4 (chemokine (C-X-C motif) …); assay: cell-based or functional assay; remark: listed apart in the source
[6] = biological target: T1, human CXCR4 (chemokine (C-X-C motif) …); assay: flow cytometry on Raji cells, dilution series 0.007-267 nM
Procedure: as §1

B1: humanized anti-CXCR4 antibody h3G10.1.91.A58B (antibody, V domains shown)
VH: EVQLVESGGGLVQPGGSLRLSCAASGFTFSDYYMSWVRQAPGKGLEWVGFIRHKANFETTEYSTSVKGRFTISRDDSKNSLYLQMNSLKTEDTAVYYCARDLPGFAYWGQGTLVTVSS
VL: DIVMTQSPDSLAVSLGERATINCKSSQSLFNSHTRKNYLAWYQQKPGQPPKLLIYWASARGSGVPDRFSGSGSGTDFTLTISSLQAEDVAVYYCKQSFNLRTFGGGTKVEIK
notes: Whole antibody (detected with an anti-human IgG Fc gamma specific second antibody); also called h3G10.1.91 VH / h3G10.A58B VL; CXCR4 Ab h3G10.1.91.A58B
**Q.** With B1 as the binder, how does the EC50 [1] read?
**A.** 0.27 nM

**Q.** And the EC50 (cynomolgus CXCR4 [2])?
**A.** 0.16 nM

**Q.** And the “EC50 (M), cAMP assay, CHO-K1 cells transfected with human CXCR4” value (shortened to “EC50 (M), cAMP assay”) [3]?
**A.** 3.92e-08 M

**Q.** What about the EC50 (cynomolgus CXCR4 [4]) of the same binder?
**A.** 2.58 nM

**Q.** What about the “IC50 (M), Calcium Flux Activity (average of 3 experiments)” value (“IC50 (M), Calcium Flux Activity” below) [5] of the same binder?
**A.** 2.17e-09 M

**Q.** And the EC50 [6]?
**A.** 3.05 nM

B2: humanized anti-CXCR4 antibody h3G10.A57.A58A (antibody, V domains shown)
VH: B1 VH with E58Y
VL: B1 VL with N99R
**Q.** With B2 as the binder, how does the “EC50 (M), cAMP assay” value [3] read?
**A.** 2.43e-08 M

**Q.** And the “IC50 (M), Calcium Flux Activity” value [5]?
**A.** 1.31e-09 M

B3: humanized anti-CXCR4 antibody h3G10.1.91.A58A (antibody, V domains shown)
VH: B1 VH
VL: B1 VL with N99R
**Q.** With B3 as the binder, how does the “IC50 (M), Calcium Flux Activity” value [5] read?
**A.** 2.35e-09 M

B4: humanized anti-CXCR4 antibody h3G10.2.37.2.72 (antibody, V domains shown)
VH: B1 VH with E58Y, T60R
VL: B1 VL with H33R, G61E, N99R
**Q.** Which “EC50 (M), cAMP assay” value [3] does the source give for B4 here?
**A.** 3.41e-08 M

**Q.** What about the “IC50 (M), Calcium Flux Activity” value [5] of the same binder?
**A.** 1.36e-09 M
